Measured values: the supplement of paper PMC10567573

B1: P2RY14 (parent)
chain: KLLSVIVWMLMLLLAVPNIILTNQ
B2: RHOBTB3 (parent)
chain: KVVEAHKIVLCAVSHVFMLLFNVK

Variants of: B1
Assay: protein stability index of a GFP-peptide fusion (GPS, HEK-293T) (PSI 1-6); higher = more stable
Settings: c terminus: a fixed tail appended
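Note: lentivirally expressed fusions sorted by FACS into six bins by GFP to DsRed ratio, PSI derived from sequencing read proportions per bin multiplied by bin number.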

Protein stability index, by site and new letter:
N23: V 2.99; I 1; G 2.54; F 2.98; T 2.97; K 2.45; A 2.34; H 3.59; R 1.92; C 2.15; W 2.57; E 3.67; M 2.42; D 3.86; Y 2.21
T22: S 3.96; W 2.92; V 4.59; I 2.32; H 2.69; N 2.75; Y 3.3; K 3.2; L 2.2; M 2.38
Q24: K 2.6; R 3.28; L 3.08; C 2.79; I 2.79; G 2.91; H 2.8; T 2.81; D 4.62; V 1.96; W 2.33; E 2.74; F 2.69; P 2.59

Variants of: B2
Assay: as above
Settings: c terminus: a fixed tail appended

Protein stability index, by site and new letter:
V23: R 3.19; S 2.44; P 2.86; H 3.18; L 2.62; G 3.05
A12: E 2.31; K 2.92; V 2.57; F 2.55; R 2.33; N 3.15; Y 2.46
V3: C 2.3; E 1.82; K 3.12; S 2.39
V13: A 1.41; W 1.82; Y 2.62; C 3.14; Q 2.9; S 2.92; M 4.81; R 3.01
H15: Q 2.78; N 3.41; F 2.06; Y 3.36
M18: G 2.75; C 2.3; I 3.05; L 3.85; S 1.95; E 2.48
K7: Y 3.35; A 3.36; F 2.99; M 2.93; Q 3
F21: M 3.68; K 1.76; N 2.8
K1: L 3.15; Q 1.9
H6: N 3.4; A 1.84; Q 1.5; M 1.63; C 2.58; W 2.24; P 2.4
F17: V 1.88; S 2.33; Q 2.41; C 3.12; A 2.4; T 2.9
A5: G 3.1; W 3.03; N 2.07
V9: D 2.67; Y 1.64; P 2.36; K 3.01
L19: D 3.41; G 2.75; F 3.32; S 2.2; N 2.18; A 2.69
E4: R 2.69; V 2.79; C 2.67; Q 2.23; W 1.42; P 2.37; K 3.02
L20: N 3.15; M 2.63; S 2.6; D 3.54; Y 3.49; W 1.9
L10: F 2.66; N 3.5; P 1.82; I 2.64; T 3.3
V2: I 3.58; Y 1.86; C 2.18; S 3.24; D 2.57; A 2.96; T 2.6
S14: I 2.88; K 2.65; R 1.41; P 2.55; H 3.58
V16: H 2.98; C 3.59; P 3.16; E 3.26; D 2.39
N22: L 2.42; K 1.9; T 4.37; R 2.69
C11: F 1.94; S 1.98; H 4.45; N 1.88
I8: P 2.29; N 1.89; V 1.68; H 2.52; R 2.17; D 2.04
K24: D 3.08; W 2.42; T 2.95; Y 2.57; V 3.19; L 2.21; G 2.28; R 2.48
